From publication PMC4328881 (Cytokine, 2015)

Biological target: fibronectin (UniProt P02751 32-2477)
Assay: SPR

Kd: 2600 nM
B1: 22 kDa (196 amino acids) OSM (natural protein, human, UniProt P13725 26-221, looked up)
chain: AAIGSCSKEYRVLLGQLQKQTDLMQDTSRLLDPYIRIQGLDVPKLREHCRERPGAFPSEETLRGLGRRGFLQTLNATLGCVLHRLADLEQRLPKAQDLERSGLNIEDLEKLQMARPNILGLRNNIYCMAQLLDNSDTAEPTKAGRGASQPPTPTPASDAFQRKLEGCRFLHGYHRFMHSVGRVFSKWGESPNRSRR
